This is an account of results in US20260049134A1 (UNIVERSITY OF FLORIDA RESEARCH FOUNDATION, published 2026).

Test [1] concerns the target T1, ICAM1, endogenous in H929 multiple myeloma cells (human, UniProt P05362 28-532).
T1 construct: Native protein on H929 cells (flow cytometry, siRNA knockdown) and in H929 lysates (IP/MS); also called CD54
The experiment in a line: flow cytometry, H929 + CADM1 siRNA; None 0.89. (In general: In flow cytometry, cells or beads pass a laser one at a time.)

The target of test [2] is T2, CADM1, endogenous in H929 multiple myeloma cells (human, UniProt Q9BY67 45-442).
T2 construct: Native protein on H929 cells (flow cytometry, siRNA knockdown) and in H929 lysates (IP/MS); also called IGSF4A
T2 sequence: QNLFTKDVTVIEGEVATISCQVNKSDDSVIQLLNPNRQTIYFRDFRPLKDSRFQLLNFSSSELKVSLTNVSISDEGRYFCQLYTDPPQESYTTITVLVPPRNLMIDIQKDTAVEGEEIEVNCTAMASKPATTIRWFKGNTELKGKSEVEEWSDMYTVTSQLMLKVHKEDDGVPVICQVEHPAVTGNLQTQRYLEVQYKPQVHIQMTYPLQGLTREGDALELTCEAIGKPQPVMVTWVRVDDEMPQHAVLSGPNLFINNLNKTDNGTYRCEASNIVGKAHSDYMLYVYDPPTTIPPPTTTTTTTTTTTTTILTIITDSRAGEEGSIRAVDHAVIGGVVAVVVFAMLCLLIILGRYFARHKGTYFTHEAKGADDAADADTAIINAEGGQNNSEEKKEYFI
The experiment in a line: flow cytometry, AF647-IgG1 on H929 cells. As to the method: Staining protocol. Cells were harvested (5×10⁴ cells per sample), washed once with phosphate-buffered saline (PBS) at RT, and a second time with ice-cold FACS buffer (PBS, 0.5% BSA, 2 mM EDTA, 0.1% NaN₃). Cells were stained in 50 μL of primary antibody for 30 min on ice, washed twice with 100 μL FACS buffer, stained with 50 μL of diluted secondary antibody, washed two more times in FACS, and then resuspended in 50 μL FACS buffer. Samples were acquired on an Accuri C6 Plus or a BD FACSCanto II flow cytometer (both from BD Biosciences). Data were analyzed using FlowJo version 10 software. Primary antibodies: Fab (10 μg/mL), IgG1 (0.1 to 50 μg/mL), or 25 μL polyclonal Fabs from periplasmic extracts. Polyclonal Fabs were produced by diluting bacterial stocks by a factor of 100 in autoinduction media and incubating overnight to induce expression as previously described. […] Viability stains: DAPI (Cell Signaling Technology) or SYTOX AADvanced Dead Cell Stain (Thermo Fisher Scientific). Labeling: The panel of chimeric rabbit/human IgG1s was labeled using the Alexa Fluor 647 Labeling Kit (Thermo Fisher Scientific, #A20173) to facilitate single-step staining. Competition: Unlabeled IgG1s were added at saturating concentrations of 60 μg/mL to block the target receptors, incubating on ice for 30 min, followed by the addition of an equal volume of the Alexa Fluor 647 labeled antibody at 2 μg/mL, and the mixture was incubated on ice for another 30 min.

T1 sequence (P05362 28-532 limits assumed): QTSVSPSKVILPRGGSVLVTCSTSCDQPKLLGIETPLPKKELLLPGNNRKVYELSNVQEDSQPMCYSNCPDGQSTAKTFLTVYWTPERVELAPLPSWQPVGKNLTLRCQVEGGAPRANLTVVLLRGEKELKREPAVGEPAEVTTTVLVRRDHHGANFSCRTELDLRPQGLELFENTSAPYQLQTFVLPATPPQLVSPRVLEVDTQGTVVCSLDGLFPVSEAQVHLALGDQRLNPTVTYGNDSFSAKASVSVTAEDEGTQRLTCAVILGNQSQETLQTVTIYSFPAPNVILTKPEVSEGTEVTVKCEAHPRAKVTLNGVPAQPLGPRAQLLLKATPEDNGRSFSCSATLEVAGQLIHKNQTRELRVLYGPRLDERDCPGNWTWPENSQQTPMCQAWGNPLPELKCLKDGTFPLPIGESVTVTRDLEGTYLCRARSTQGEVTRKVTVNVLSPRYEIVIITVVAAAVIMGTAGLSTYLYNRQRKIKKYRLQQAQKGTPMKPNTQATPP

B1: HW-113 chimeric rabbit-human IgG1 LA/LA/PG (antibody, V domains shown)
VH: QKQLVESGGGLVQPGGSLTLTCTVSGFSLNKYYMGWFRQAPGKGLEWIGVISRSGDTYYSSWAKGRFTISKASTTVDLRITSPTTEDTATYFCARDASSPGFHGDRLDLWGQGTLVTVSS
VL: SFVLTQPASVQVNLGQTVSLTCTADTLSRSYASWYQQKPGQAPVLLIYRDTSRPSGVPDRFSGSSSGNTATLTISGAQAGDEADYYCATSDGIGSNYLWVFGGGTQLTVTG
notes: Fc-silenced (L234A/L235A/P329G) IgG1, lambda; Alexa Fluor 647-labeled in single-step flow cytometry
For B1, in test [1], the “Cells stained (%)” value was 99.7%.

B2: TH9-0022 (antibody, human IgG1, kappa, L234A L235A, V domains shown)
VH: QSLEESGGRLVTPGTPLTLTCTVSGFSLSSYAMNWVRQAPGKGLEWIGIINSYGSTYYASWAKGRFTISKTSTTVDLKITSPTTEDTATYFCARVTYDSYGYGYAPYGMDLWGPGTLVTVSS
VL: LVMTQTPSSTSNAVGGTVTIKCQASQSIGNVLAWYQQKPGQPPKLLIYAASTLASGVPSRVGGSRSGTEYTLTISGVQREDAATYYCLGSDSDSDIAFGGGTELEILR
notes: also called TH9-022; negative control
B2: the binding result in test [2] is reported as “no binding”.
